Assay results taken from patent US20230332164A1 (SYNLOGIC OPERATING, published 2023).

B2: CD47 on mouse CT26 cells (receptor, UniProt Q61735 19-303, looked up)
chain: QLLFSNVNSIEFTSCNETVVIPCIVRNVEAQSTEEMFVKWKLNKSYIFIYDGNKNSTTTDQNFTSAKISVSDLINGIASLKMDKRDAMVGNYTCEVTELSREGKTVIELKNRTVSWFSPNEKILIVIFPILAILLFWGKFGILTLKYKSSHTNKRIILLLVAGLVLTVIVVVGAILLIPGEKPVKNASGLGLIVISTGILILLQYNVFMTAFGMTSFTIAILITQVLGYVLALVGLCLCIMACEPVHGPLLISGLGIIALAELLGLVYMKFVASNQRTIQPPRNR
notes: whole, on cells; also called CD47 on CT26 cells; murine CD47 on CT26 cells

Tests used:
IgG (control coating) [1] = test: ELISA, IgG-coated plate, bacterial supernatant
[2] = molecular target: T1, recombinant SIRPα (Rndsystems) (mouse, UniProt P97797 32-373, limits assumed); test: competition flow cytometry on CT26 cells
T1 construct: also called recombinant SIRPalpha; recombinant mSIRPα
T1 sequence (looked up): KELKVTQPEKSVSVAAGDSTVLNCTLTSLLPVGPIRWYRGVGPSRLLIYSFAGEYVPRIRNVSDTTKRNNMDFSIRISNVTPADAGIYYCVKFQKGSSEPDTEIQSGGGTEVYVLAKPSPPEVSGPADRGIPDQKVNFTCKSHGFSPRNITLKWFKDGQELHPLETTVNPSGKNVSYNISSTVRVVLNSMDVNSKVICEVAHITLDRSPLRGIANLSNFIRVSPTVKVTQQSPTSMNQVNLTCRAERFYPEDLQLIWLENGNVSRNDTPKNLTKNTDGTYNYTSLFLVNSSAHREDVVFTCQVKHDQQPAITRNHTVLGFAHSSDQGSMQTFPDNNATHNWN

IgG (control coating) [3] = test: ELISA, IgG-coated plate, clarified bacterial supernatant
CD47 on mouse CT26 cells = molecular target: B2; test: flow cytometry on CT26 cells, 10x concentrated supernatant

B1: anti-mCD47 scFv, secreted by SYN3161 (scFv)
scFv: QVKLLQSGAALVKPGASVKMSCQASGYSFTDYWVTWVKQSHGQSLEWIGEIYPSNTVTNFNDNFKGKATLTVDKSTSTAYMELSRLTSEDSAIYYCTRIGNSGYRVGWFIYWGQGTLVTVLSGGGGSGGGGSGGGGSDTVLTQSPALAVSPGERVTISCKASESVSSHMHWYQQKPGQQPKLLIYKASNLASGVPARFSGSGSGTDFTLTIDPVEADDTATYFCQQGWNGPFTFGAGTRLELKRADAAGSGELGGSGKPIPNPLLGLDSTGSGHHHHHH
Binder B1 has an ELISA signal (unit not given) (IgG (control coating) [1]) of 0.067.

B2: binds [2].

B3: mCD40L2 (112-260), secreted by SYN3367 (ligand)
chain: VDYKDDDDKQLGGGMQRGDEDPQIAAHVVSEANSNAASVLQWAKKGYYTMKSNLVMLENGKQLTVKREGLYYVYTQVTFCSNREPSSQRPFIVGLWLKPSSGSERILLKAANTHSSSQLCEQQSVHLGGVFELQAGASVFVNVTEASQVIHRVGFSSFGLLKLKGELNSKLEGKPIPNPLLGLDSTDPNSSSVDHHHHHH
In the case of B3, the ELISA signal (unit not given) (IgG (control coating) [3]) is reported as 0.052.

B4: mFD6x2SIRPα, secreted by SYN3160 (receptor)
chain: VDYKDDDDKQLGGSEEEVQIIQPDKSVSVAAGESAILHCTITSLFPVGPIQWFRGAGPARVLIYNQRQGPFPRVTTISETTRRENMDFSISISNITPADAGTYYCIKFRKGSPDTEFKSGAGTELSVRAKPSGGGGSGGGGSEEEVQIIQPDKSVSVAAGESAILHCTITSLFPVGPIQWFRGAGPARVLIYNQRQGPFPRVTTISETTRRENMDFSISISNITPADAGTYYCIKFRKGSPDTEFKSGAGTELSVRAKPSGSGELGGSGKPIPNPLLGLDSTGSGHHHHHH
notes: also called mFD62xSIRPα; FD1x2SIRPα
B4: binds (CD47 on mouse CT26 cells).

B5: mCD40L1 (47-260), secreted by SYN3366 (ligand)
chain: VDYKDDDDKQLGGGHRRLDKVEEEVNLHEDFVFIKKLKRCNKGEGSLSLLNCEEMRRQFEDLVKDITLNKEEKKENSFEMQRGDEDPQIAAHVVSEANSNAASVLQWAKKGYYTMKSNLVMLENGKQLTVKREGLYYVYTQVTFCSNREPSSQRPFIVGLWLKPSSGSERILLKAANTHSSSQLCEQQSVHLGGVFELQAGASVFVNVTEASQVIHRVGFSSFGLLKLKGELNSKLEGKPIPNPLLGLDSTDPNSSSVDHHHHHH
B5 gave an ELISA signal (unit not given) (IgG (control coating) [3]) of 0.052.

B6: mCV1SIRPα, secreted by SYN3159 (receptor)
chain: VDYKDDDDKQLGGSEEELQIIQPDKSVLVAAGETATLRCTITSLFPVGPIQWFRGAGPGRVLIYNQRQGPFPRVTTVSDTTKRNNMDFSIRIGNITPADAGTYYCIKFRKGSPDDVEFKSGAGTELSVRAKPSGSGELGGSGKPIPNPLLGLDSTGSGHHHHHH
notes: also called PhoA-FLAG-CV1sirpα-V5-HIS
B6: binds (CD47 on mouse CT26 cells).

B7: WT mSIRPα (32-373), secreted by SYN2996 (receptor)
chain: VDYKDDDDKQLGGGKELKVTQPEKSVSVAAGDSTVLNCTLTSLLPVGPIKWYRGVGQSRLLIYSFTGEHFPRVTNVSDATKRNNMDFSIRISNVTPEDAGTYYCVKFQKGPSEPDTEIQSGGGTEVYVLAKPSPPEVSGPADRGIPDQKVNFTCKSHGFSPRNITLKWFKDGQELHHLETTVNPSGKNVSYNISSTVRVVLNSMDVHSKVICEVAHITLDRSPLRGIANLSNFIRVSPTVKVTQQSPTSMNQVNLTCRAERFYPEDLQLIWLENGNVSRNDTPKNLTKNTDGTYNYTSLFLVNSSAHREDVVFTCQVKHDQQPAITRNHTVLGLAHSSDQGSMQTFPGNNATHNWNKGELNSKLEGKPIPNPLLGLDSTDPNSSSVDHHHHHH
Binder B7 has an ELISA signal (unit not given) (IgG (control coating) [1]) of 0.056.
